Reference: US20240131074A1 (TENEOBIO, published 2024)

B1: Anti-PSMA heavy chain-only antibody (UniAb) Clone ID 325972 (antibody, V domains shown)
VH: EVQLLESGGGVVQPGRSLRLSCAASGFSFSGYGMHWVRQAPGKEREWVAVISYDGSNKYYADSVKGRFTISRDNSKNTLYLQMNSLRAEDTAVYYCAKDANWGQHPDHTSFDYRGQGTLVTVSS
notes: Heavy chain-only antibody with no light chain
B2: Anti-PSMA heavy chain-only antibody (UniAb) Clone ID 325795 (antibody, V domains shown)
VH: EVQLLESGGGLVQPGGSLRLSCAASGFTFKFYAMSWVRQAPGKGPEWVSVISGSGGSTYYADSVKGRFTISRDNSKNTLHLQMNSLRAEDTAVYFCAKEIAEASRGFDYRGQGTLVTVSS
notes: as for B1

Legend:
[1] = biological target: human PSMA protein (ELISA) (human, UniProt Q04609 44-750, limits assumed); assay: ELISA on human PSMA protein
Sequence of human PSMA protein (ELISA) (Q04609 44-750 limits assumed): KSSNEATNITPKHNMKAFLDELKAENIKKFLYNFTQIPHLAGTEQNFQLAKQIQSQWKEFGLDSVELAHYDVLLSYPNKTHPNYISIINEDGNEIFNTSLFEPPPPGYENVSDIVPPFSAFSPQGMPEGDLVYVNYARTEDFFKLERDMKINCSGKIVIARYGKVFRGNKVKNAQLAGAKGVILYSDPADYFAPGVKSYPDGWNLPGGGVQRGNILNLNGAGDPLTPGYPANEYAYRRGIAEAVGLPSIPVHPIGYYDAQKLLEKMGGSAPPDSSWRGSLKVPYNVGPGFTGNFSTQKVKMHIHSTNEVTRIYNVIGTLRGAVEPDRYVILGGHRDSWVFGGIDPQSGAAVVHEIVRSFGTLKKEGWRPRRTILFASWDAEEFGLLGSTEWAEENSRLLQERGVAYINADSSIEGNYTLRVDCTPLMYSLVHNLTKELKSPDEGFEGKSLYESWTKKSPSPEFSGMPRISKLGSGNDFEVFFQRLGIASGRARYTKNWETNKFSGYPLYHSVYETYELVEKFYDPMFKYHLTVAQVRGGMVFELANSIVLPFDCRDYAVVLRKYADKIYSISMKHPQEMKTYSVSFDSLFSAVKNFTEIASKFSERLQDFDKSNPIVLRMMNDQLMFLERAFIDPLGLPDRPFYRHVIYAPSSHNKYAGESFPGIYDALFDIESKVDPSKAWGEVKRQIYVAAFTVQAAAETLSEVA
Method: The two indicated antibodies were tested for binding in a standard ELISA assay to human PSMA. The human PSMA protein was used at a concentration of 2 μg/mL to capture UniAbs at 50 ng/mL. Antibody binding was detected with a goat anti-human IgG HRP conjugated antibody (ThermoFisher 31413). All antibodies were diluted in 1× PBS with 0.05% Tween-20 and 1% dry milk powder.

[2] = biological target: T1, human PSMA expressed on cells (LNCaP, 22Rv1, PC3 cells stably transfected to express human PSMA) (human, UniProt Q04609 1-750); assay: cell-binding assay on PSMA+ cells
T1 construct: whole, on cells; Type II transmembrane protein; The background section calls it a non-covalent homodimer; also called Prostate Specific Membrane Antigen; Glutamate Carboxypeptidase II
T1 sequence (Q04609 whole entry): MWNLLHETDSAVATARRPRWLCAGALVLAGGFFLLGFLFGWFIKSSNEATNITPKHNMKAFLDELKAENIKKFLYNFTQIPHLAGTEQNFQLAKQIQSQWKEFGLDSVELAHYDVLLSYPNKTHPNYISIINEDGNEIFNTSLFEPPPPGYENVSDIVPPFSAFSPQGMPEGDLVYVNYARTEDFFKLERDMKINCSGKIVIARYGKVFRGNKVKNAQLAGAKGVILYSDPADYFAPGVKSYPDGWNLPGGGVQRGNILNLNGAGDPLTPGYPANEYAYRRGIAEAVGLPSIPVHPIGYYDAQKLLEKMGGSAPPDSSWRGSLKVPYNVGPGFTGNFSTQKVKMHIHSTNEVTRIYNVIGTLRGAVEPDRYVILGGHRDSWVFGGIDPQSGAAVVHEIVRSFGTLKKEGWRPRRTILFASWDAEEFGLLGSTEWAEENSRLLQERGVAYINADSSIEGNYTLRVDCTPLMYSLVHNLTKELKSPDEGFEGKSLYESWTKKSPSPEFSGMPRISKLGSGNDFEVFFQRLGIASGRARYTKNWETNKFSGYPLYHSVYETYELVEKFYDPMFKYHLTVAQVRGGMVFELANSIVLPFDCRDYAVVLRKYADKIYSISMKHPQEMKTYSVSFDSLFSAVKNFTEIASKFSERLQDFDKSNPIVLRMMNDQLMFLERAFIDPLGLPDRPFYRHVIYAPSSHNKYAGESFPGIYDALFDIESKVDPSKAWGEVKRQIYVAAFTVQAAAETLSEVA

Binder	binding result [1]	binding result [2]
B1	binds	binds
B2	binds	binds
